Source: patent US11130803B2, “Isoform-selective TGFβ1 inhibitors and use thereof” (Scholar Rock, Inc., priority 2018, dated 2021)
Read-outs that look alike come from different tables or passages of the source.

How the values were obtained:
[1] = system: hLTBP1-/hLTBP3-proTGFβ1 vs hGARP-/hLRRC33-proTGFβ1 complexes; test: Solution equilibrium titration: relative affinity (bias) LTBP complexes vs cell-associated complexes; type: binding, human; settings: MSD-SET; for (H) G/D (fold bias): ratio of average KD cell-associated / matrix-associated
Excerpt: Context-biased: As used herein, “context-biased antibodies” refer to a type of conformational antibodies that binds an antigen with differential affinities when the antigen is associated with (i.e., bound to or attached to) an interacting protein or a fragment thereof. Thus, a context-biased antibody that specifically binds an epitope within proTGFβ1 may bind LTBP1-proTGFβ1, LTBP3-proTGFβ1, GARP-proTGFβ1 and LRRC33-proTGFβ1 with different affinities. […] Relative affinities of [matrix-associated complexes]: [cell-associated complexes] may be obtained by taking average KD values of the former, taking average KD values of the latter, and calculating the ratio of the two, as exemplified herein.
In a yet further aspect, the present disclosure provides context-biased TGFβ1 inhibitors. The context-biased antibodies include LTBP-biased antibodies with higher affinities for ECM-associated LLCs than for cell-associated LLCs wherein the affinities are measured at equilibrium.

[2] = system: matrix-associated (LTBP1/LTBP3) and cell-associated (GARP/LRRC33) proTGFβ1 complexes; test: Octet: average KD and fold bias, matrix- vs cell-associated complexes; type: binding, human; settings: average KD of (B) and (C), read-out: (D) ECM AVRG
[3] = system: matrix-associated (LTBP1/LTBP3) and cell-associated (GARP/LRRC33) proTGFβ1 complexes; test: as above; type: binding, human; settings: for Kd: average KD of (E) and (F), cell-associated complexes, read-out: (G) Cell AVRG; for (H) G/D (fold bias): ratio of average KD cell-associated / matrix-associated
How it was run: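 Monoclonal antibodies were measured for binding affinity, expressed as KD, to cell-surface or cell-associated proTGFβ1 complexes (GARP and LRRC33). The KD values for the two complexes were averaged to give one value for cell-associated affinity. That average was then divided by the matrix-associated average to express fold bias between the complex types.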

[4] = biological target: T1, recombinant human LTBP3-proTGFβ1 complex (Homo sapiens, UniProt P01137); test: Octet (Biolayer Interferometry) in vitro kinetic binding; settings: in M
T1 construct: made in house; host or cells: Expi293F cells, transient co-transfection
How it was run: (§1)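 Antibody binding kinetics (KD) were determined by biolayer interferometry (Octet QKe) using streptavidin-coated biosensors. Biotinylated human presenting molecule–proTGFβ1 complexes were presented at […].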

[5] = biological target: T2, recombinant human LTBP1-proTGFβ1 complex (Homo sapiens, UniProt P01137); test: as above; settings: in M
T2 construct: made in house; host or cells: Expi293F cells, transient co-transfection
How it was run: as §1

[6] = biological target: T3, recombinant human GARP-proTGFβ1 complex (Homo sapiens, UniProt P01137); test: as above; settings: in M
T3 construct: made in house
How it was run: as §1

[7] = biological target: T4, recombinant human LRRC33-proTGFβ1 complex (Homo sapiens, UniProt P01137); test: as above; settings: in M
T4 construct: made in house
How it was run: as §1

[8] = average KD of (B) and (C), read-out: (D) ECM AVRG
[9] = average KD of (E) and (F), read-out: (G) Cell AVRG

T2 sequence (P01137 30-390): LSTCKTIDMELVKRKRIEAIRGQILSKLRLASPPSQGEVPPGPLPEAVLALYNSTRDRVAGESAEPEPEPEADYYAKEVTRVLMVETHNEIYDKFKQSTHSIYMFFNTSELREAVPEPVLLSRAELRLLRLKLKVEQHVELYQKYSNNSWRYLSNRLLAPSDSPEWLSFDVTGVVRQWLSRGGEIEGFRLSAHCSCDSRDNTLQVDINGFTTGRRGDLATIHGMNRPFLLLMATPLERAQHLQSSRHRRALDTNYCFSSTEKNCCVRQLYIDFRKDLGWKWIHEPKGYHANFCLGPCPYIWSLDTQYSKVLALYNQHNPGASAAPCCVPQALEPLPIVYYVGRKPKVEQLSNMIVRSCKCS
T2 sequence (Q14766 873-1507 partner): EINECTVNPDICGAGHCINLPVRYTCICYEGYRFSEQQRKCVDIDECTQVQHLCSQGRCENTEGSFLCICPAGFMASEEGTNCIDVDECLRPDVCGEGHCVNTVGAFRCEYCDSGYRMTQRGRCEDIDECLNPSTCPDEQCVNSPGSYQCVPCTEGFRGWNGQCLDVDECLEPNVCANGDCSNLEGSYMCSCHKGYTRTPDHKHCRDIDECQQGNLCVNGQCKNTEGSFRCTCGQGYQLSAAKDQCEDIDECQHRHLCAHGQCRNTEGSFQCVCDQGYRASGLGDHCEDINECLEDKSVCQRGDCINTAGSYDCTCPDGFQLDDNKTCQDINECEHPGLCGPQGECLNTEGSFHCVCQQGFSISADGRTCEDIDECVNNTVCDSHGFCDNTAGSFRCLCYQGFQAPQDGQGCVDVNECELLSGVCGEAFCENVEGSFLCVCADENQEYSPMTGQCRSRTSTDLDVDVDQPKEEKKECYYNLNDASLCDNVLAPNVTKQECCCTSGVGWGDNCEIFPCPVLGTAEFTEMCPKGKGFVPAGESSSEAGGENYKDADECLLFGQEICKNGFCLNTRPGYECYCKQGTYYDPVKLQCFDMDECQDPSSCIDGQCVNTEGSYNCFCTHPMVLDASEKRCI
T3 sequence (P01137 30-390): as the sequence (P01137 30-390) above
T3 sequence (Q14392 20-627 partner limits assumed): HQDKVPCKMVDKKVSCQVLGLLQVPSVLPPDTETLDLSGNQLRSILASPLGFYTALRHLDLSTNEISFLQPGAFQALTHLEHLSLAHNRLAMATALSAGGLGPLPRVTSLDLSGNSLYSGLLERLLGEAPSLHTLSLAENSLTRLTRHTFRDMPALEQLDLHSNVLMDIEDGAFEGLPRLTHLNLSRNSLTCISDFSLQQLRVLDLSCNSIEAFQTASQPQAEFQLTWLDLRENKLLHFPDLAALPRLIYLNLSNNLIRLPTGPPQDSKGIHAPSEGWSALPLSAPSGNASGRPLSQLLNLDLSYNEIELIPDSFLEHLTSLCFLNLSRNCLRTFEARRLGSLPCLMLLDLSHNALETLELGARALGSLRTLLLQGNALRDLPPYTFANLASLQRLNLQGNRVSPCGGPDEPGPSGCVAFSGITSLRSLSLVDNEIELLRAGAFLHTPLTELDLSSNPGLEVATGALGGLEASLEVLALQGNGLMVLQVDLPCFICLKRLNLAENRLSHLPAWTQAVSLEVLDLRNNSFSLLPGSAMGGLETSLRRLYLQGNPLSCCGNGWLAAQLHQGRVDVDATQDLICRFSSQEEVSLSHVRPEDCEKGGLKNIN
T1 sequence (P01137 30-390): as the sequence (P01137 30-390) above
T1 sequence (Q9NS15 866-1039 partner limits assumed): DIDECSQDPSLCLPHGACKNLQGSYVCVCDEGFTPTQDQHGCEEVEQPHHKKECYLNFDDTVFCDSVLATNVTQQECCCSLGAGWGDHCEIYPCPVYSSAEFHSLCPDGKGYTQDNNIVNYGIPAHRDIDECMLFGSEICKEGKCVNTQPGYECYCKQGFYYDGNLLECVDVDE
T4 sequence (P01137 30-390): as the sequence (P01137 30-390) above
T4 sequence (Q86YC3 19-650 partner limits assumed): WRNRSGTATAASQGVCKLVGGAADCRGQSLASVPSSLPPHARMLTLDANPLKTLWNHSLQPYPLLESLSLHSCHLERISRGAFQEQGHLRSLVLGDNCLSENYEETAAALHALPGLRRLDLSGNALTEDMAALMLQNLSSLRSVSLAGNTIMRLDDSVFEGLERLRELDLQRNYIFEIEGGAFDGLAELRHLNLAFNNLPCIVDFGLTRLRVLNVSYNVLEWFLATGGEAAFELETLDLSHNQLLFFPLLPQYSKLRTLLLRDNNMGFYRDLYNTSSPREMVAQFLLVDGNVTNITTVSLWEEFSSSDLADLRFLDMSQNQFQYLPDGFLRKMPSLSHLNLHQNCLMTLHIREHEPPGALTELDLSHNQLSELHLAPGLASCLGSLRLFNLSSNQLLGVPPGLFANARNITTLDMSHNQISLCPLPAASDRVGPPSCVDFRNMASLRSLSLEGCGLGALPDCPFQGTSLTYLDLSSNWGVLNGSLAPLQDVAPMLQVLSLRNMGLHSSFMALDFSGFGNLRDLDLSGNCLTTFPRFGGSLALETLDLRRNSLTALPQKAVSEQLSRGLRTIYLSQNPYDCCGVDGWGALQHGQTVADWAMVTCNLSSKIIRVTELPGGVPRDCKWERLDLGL

| Molecule | Kd [1, 8] | Kd [1, 9] | (H) G/D (fold bias) [1] | Kd [2] | Kd [3] | (H) G/D (fold bias) [3] | (C) hLTBP3, Matrix-associated proTGFb1 (KD) [4] | (B) hLTBP1, Matrix-associated proTGFb1 (KD) [5] | (E) hGARP, Cell-associated proTGFb1 (KD) [6] | (F) hLRRC33, Cell-associated proTGFb1 (KD) [7] |
| --- | --- | --- | --- | --- | --- | --- | --- | --- | --- | --- |
| Ab30: monoclonal antibody; VH SEQ ID NO: 138, VL SEQ ID NO: 15 (antibody, V domains shown) VH: EVQLVESGGGLVQPGGSLRLSCAASGFTFSSFSMDWVRQAPGKGLEWVSYISPDASTIYYADSVKGRFTISRDNAKNSLYLQMNSLRAEDTAVYYCARGTLDYGDMLDPWGQGTLVTVSS VL: DIQMTQSPSSLSASVGDRVTITCQASQDITNYLNWYQQKPGKAPKLLIYDASNLETGVPSRFSGSGSGTDFTFTISSLQPEDIATYYCQQADNHPPWTFGGGTKVEIK | 0.029 nM | 0.081 nM | 2.80 fold | 0.296 nM | 0.684 nM | 2.307 fold | 2.61E−10 | 3.32E−10 | 8.33E−10 | 5.35E−10 |
| Ab31: monoclonal antibody; VH SEQ ID NO: 139, VL SEQ ID NO: 15 (antibody, V domains shown) VH: EVQLVESGGGLVQPGGSLRLSCAASGFTFSSFSMDWVRQAPGKGLEWVSYISPDASTIYYADSVKGRFTISRDNAKNTLYLQMNSLRAEDTAVYYCARAVLDYGDMLDPWGQGTLVTVSS VL: DIQMTQSPSSLSASVGDRVTITCQASQDITNYLNWYQQKPGKAPKLLIYDASNLETGVPSRFSGSGSGTDFTFTISSLQPEDIATYYCQQADNHPPWTFGGGTKVEIK | 0.017 nM | 0.058 nM | 3.41 fold | 0.208 nM | 0.495 nM | 2.376 fold | 1.81E−10 | 2.36E−10 | 5.81E−10 | 4.10E−10 |
| Ab32: monoclonal antibody; VH SEQ ID NO: 140, VL SEQ ID NO: 15 (antibody, V domains shown) VH: EVQLVESGGGLVQPGGSLRLSCAASGFTFSSFSMNWVRQAPGKGLEWVSYISPSADTIYYADSVKGRFTISRDNAKNTLYLQMNSLRAEDTAVYYCARGVWDMGDMLDPWGQGTLVTVSS VL: DIQMTQSPSSLSASVGDRVTITCQASQDITNYLNWYQQKPGKAPKLLIYDASNLETGVPSRFSGSGSGTDFTFTISSLQPEDIATYYCQQADNHPPWTFGGGTKVEIK | 0.032 nM | 0.051 nM | 1.60 fold | 0.242 nM | 0.597 nM | 2.467 fold | 2.15E−10 | 2.69E−10 | 4.96E−10 | 6.98E−10 |
| Ab33: monoclonal antibody; VH SEQ ID NO: 141, VL SEQ ID NO: 15 (antibody, V domains shown) VH: EVQLVESGGGLVQPGGSLRLSCAASGFTFSSFSMNWVRQAPGKGLEWVSYISPSADTIYYADSVKGRFTISRDNAKNTLYLQMNSLRAEDTAVYYCAHGVLDYGDMLDPWGQGTLVTVSS VL: DIQMTQSPSSLSASVGDRVTITCQASQDITNYLNWYQQKPGKAPKLLIYDASNLETGVPSRFSGSGSGTDFTFTISSLQPEDIATYYCQQADNHPPWTFGGGTKVEIK | 0.009 nM | 0.027 nM | 3.00 fold | 0.145 nM | 0.302 nM | 2.083 fold | 1.11E−10 | 1.79E−10 | 2.65E−10 | 3.39E−10 |
